Three molecules from patent publication US20140087995A1 (published 2014) can be followed below.

Experiment [1] has as its target T1, rat amylin receptor (rat calcitonin receptor + rat RAMP 3) (rat, UniProt P32214 25-516; Q9JJ73 23-147).
T1 construct: whole, on cells; Membranes of BHK tk'ts 13 cells transiently transfected with the rat calcitonin receptor and rat RAMP 3; also called rAmylin-R; rat amylin 3(a) receptor
T1 sequence (looked up) 1: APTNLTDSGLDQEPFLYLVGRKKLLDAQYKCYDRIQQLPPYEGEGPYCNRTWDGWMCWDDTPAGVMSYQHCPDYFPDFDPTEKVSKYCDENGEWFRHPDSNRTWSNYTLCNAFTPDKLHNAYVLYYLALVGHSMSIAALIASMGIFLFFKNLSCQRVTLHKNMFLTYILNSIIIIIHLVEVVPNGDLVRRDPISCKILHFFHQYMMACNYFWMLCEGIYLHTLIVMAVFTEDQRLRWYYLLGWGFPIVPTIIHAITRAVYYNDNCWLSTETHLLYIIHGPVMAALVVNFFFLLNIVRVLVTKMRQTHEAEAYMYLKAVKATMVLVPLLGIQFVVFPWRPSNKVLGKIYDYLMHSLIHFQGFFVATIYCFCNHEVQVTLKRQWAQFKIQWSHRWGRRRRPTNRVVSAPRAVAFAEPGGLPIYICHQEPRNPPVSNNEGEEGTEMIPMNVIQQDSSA
T1 sequence (looked up) 2: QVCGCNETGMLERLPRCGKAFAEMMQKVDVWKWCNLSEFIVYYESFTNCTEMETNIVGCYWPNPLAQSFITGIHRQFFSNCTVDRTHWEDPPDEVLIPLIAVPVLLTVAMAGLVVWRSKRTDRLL
The experiment is described as follows: SPA competition vs 125I-rat amylin, membranes with rat CTR + rat RAMP3 (Assay VI).

In experiment [2] the target is T2, rat calcitonin receptor (rat, UniProt P32214 25-516).
T2 construct: whole, on cells; Membranes of BHK tk'ts 13 cells transiently transfected with the rat calcitonin receptor; also called rCTR; rat calcitonin (a) receptor
T2 sequence (looked up): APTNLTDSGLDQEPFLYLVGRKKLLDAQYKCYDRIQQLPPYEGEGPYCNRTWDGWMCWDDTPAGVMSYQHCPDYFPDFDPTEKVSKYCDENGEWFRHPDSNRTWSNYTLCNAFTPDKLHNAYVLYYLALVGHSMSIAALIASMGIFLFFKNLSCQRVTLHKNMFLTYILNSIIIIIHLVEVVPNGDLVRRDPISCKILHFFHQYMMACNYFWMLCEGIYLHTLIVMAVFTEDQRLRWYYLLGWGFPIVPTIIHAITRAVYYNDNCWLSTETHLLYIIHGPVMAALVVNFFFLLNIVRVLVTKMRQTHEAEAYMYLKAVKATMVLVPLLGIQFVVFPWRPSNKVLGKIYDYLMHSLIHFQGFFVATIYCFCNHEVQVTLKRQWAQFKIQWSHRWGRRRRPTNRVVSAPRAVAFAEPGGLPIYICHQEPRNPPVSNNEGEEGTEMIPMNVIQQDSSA
In words: IC50 at rCTR divided by IC50 at rAmylin-R (reference).

Experiment [3] has as its target T3, human calcitonin receptor (human, UniProt P30988 25-474).
T3 construct: whole, on cells; Membranes of a BHK tk'ts 13 cell line stably transfected with the human calcitonin receptor; also called hCTR; hCT
T3 sequence (looked up): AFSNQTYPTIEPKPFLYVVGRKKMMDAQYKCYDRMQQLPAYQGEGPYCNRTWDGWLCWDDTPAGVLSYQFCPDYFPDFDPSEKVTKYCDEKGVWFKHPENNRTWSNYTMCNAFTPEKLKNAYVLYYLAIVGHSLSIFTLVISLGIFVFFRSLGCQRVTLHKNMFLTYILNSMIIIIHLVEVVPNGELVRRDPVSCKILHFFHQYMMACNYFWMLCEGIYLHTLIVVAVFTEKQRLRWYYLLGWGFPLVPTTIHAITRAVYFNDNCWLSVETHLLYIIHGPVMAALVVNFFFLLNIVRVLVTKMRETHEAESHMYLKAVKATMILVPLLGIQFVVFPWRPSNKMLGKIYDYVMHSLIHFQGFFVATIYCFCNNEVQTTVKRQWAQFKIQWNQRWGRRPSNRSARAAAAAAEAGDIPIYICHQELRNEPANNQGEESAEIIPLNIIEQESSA
The experiment is described as follows: IC50 at hCTR divided by IC50 at hAmylin-R (reference). An outline of the steps: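 Competition binding by SPA uses membrane preparations (35 ng/μL final) in pH 7.4 Hepes buffer with 1 mM CaCl2 and 5 mM MgCl₂. Incubation lasts 120 min at 25° C, and IC₅₀ comes from one-site fitting.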

Experiment [4] concerns the target T2, rat calcitonin receptor. In words: SPA competition vs 125I-calcitonin, membranes with rat CTR (Assay VIII).
In experiment [5] the target is T4, rat calcitonin receptor (rat, UniProt P32214 25-516).
T4 construct: whole, on cells; Cell membranes of transiently transfected BHK tk'ts 13 cells (Assay VIII); also called rCTR; rCT
T4 sequence (looked up): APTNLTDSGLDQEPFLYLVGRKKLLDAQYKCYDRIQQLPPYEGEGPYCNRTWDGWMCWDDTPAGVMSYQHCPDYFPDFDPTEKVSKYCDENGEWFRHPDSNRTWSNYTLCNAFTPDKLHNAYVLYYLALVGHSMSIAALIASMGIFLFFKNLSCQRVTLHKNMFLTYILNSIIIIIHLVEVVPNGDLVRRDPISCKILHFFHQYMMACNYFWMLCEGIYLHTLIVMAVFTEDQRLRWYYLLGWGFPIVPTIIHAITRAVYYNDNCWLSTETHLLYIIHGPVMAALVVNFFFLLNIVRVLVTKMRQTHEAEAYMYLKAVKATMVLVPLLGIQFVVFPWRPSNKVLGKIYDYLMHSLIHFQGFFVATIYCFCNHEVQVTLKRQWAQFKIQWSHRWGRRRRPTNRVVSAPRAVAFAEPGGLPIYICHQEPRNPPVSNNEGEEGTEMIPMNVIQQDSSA
The experiment is described as above.

The target in experiment [6] is T4, rat calcitonin receptor. The experiment is described as follows: ratio IC50 rat calcitonin receptor / IC50 rat amylin receptor.
Experiment [7] has as its target T5, rat amylin receptor (rat calcitonin receptor + rat RAMP 3) (rat, UniProt P32214 25-516; Q9JJ73 23-147).
T5 construct: whole, on cells; Cell membranes of transiently transfected BHK tk'ts 13 cells (Assay VI); also called rAmylin-R; rat amylin 3(a) receptor
T5 sequence (looked up) 1: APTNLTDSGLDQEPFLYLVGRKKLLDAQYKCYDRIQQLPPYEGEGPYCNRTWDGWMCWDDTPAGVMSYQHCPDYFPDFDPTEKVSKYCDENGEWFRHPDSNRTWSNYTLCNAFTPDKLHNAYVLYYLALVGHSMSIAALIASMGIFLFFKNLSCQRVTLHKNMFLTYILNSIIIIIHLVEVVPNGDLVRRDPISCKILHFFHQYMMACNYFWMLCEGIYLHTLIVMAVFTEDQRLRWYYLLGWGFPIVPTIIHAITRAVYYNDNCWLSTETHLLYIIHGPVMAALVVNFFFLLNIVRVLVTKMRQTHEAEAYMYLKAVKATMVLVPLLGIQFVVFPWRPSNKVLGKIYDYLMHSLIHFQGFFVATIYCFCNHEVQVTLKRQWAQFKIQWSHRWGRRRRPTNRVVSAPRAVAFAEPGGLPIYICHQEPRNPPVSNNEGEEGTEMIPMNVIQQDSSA
T5 sequence (looked up) 2: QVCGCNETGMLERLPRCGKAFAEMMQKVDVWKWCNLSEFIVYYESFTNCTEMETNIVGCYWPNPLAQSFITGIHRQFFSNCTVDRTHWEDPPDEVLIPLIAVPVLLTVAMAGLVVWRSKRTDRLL
The experiment is described as follows: SPA competition vs 125I-rat amylin, membranes with rat CTR + rat RAMP3 (Assay VI).

Read-outs that look alike come from different tables or passages of the source. Numbered stars: 1 amine (or outer) side, 2 acyl side, 3 side chain; on linkers, the order of the positions; unused ones are H or OH. Bridge positions count the residues as written; N and C are the ends. Side chains are listed from the residue outwards. Ends that are not written are not given here. * marks the point of attachment. C20 diacid = O=C(O)CCCCCCCCCCCCCCCCCCC(=O)*; γGlu = O=C(O)[C@H](CCC(=O)[*:2])N[*:1]; AEEA = NCCOCCOCC(=O)O

B1: N^ε1-[(4S)-4-carboxy-4-(19-carboxynonadecanoylamino)butanoyl]-[Arg17,Pro21,Pro27]-h-amylin (peptide)
peptide: K([γGlu-C20 diacid])CNTATCATQRLANFLRHSSPNFGAIPSSTNVGSNTY-NH2
modifications: disulfide 2-7; N-terminus assumed
SMILES: CC[C@H](C)[C@H](NC(=O)[C@H](C)NC(=O)CNC(=O)[C@H](Cc1ccccc1)NC(=O)[C@H](CC(N)=O)NC(=O)[C@@H]1CCCN1C(=O)[C@H](CO)NC(=O)[C@H](CO)NC(=O)[C@H](Cc1c[nH]cn1)NC(=O)[C@H](CCCNC(=N)N)NC(=O)[C@H](CC(C)C)NC(=O)[C@H](Cc1ccccc1)NC(=O)[C@H](CC(N)=O)NC(=O)[C@H](C)NC(=O)[C@H](CC(C)C)NC(=O)[C@H](CCCNC(=N)N)NC(=O)[C@H](CCC(N)=O)NC(=O)[C@@H](NC(=O)[C@H](C)NC(=O)[C@@H]1CSSC[C@H](NC(=O)[C@@H](N)CCCCNC(=O)CC[C@H](NC(=O)CCCCCCCCCCCCCCCCCCC(=O)O)C(=O)O)C(=O)N[C@@H](CC(N)=O)C(=O)N[C@@H]([C@@H](C)O)C(=O)N[C@@H](C)C(=O)N[C@@H]([C@@H](C)O)C(=O)N1)[C@@H](C)O)C(=O)N1CCC[C@H]1C(=O)N[C@@H](CO)C(=O)N[C@@H](CO)C(=O)N[C@H](C(=O)N[C@@H](CC(N)=O)C(=O)N[C@H](C(=O)NCC(=O)N[C@@H](CO)C(=O)N[C@@H](CC(N)=O)C(=O)N[C@H](C(=O)N[C@@H](Cc1ccc(O)cc1)C(N)=O)[C@@H](C)O)C(C)C)[C@@H](C)O
notes: modifications are with respect to human amylin; also called compound 48
In general, IC50 refers to the concentration needed to halve the response being measured. B1: the results for the IC50 (in experiment [1]; with rat calcitonin receptor [4]) were 0.558 nM and 112 nM, respectively. Besides, in the experiment with rat calcitonin receptor [2], the “Ratio rCT/rAmylin binding” value is 201. Besides, in experiment [3], the “Ratio hCT/hAmylin binding” value is 69.7.

B2: N^ε1-[2-[2-[2-[[(4S)-4-carboxy-4-(19-carboxynonadecanoylamino)butanoyl]amino]ethoxy]ethoxy]acetyl]-[Arg17,Pro21,Pro27,Pro28,Pro31]-h-amylin (peptide)
peptide: K([AEEA-γGlu-C20 diacid])CNTATCATQRLANFLRHSSPNFGAIPPSTPVGSNTY-NH2
modifications: disulfide 2-7
notes: Acylated analogue of human amylin; also called compound 53
In the case of B2, the IC50 in the experiment with rat calcitonin receptor [5] came to 10.9 nM; in experiment [7], 0.084 nM. In addition, the “Ratio rCT/rAmylin binding” value with rat calcitonin receptor [6] was 130.

B3: N^ε1-[2-[2-[2-[[(4S)-4-carboxy-4-(19-carboxynonadecanoylamino)butanoyl]amino]ethoxy]ethoxy]acetyl]-[Arg17,Pro21,Pro27,Pro28,Pro34]-h-amylin (peptide)
peptide: K([AEEA-γGlu-C20 diacid])CNTATCATQRLANFLRHSSPNFGAIPPSTNVGPNTY-NH2
modifications: disulfide 2-7; N-terminus assumed
SMILES: CC[C@H](C)[C@H](NC(=O)[C@H](C)NC(=O)CNC(=O)[C@H](Cc1ccccc1)NC(=O)[C@H](CC(N)=O)NC(=O)[C@@H]1CCCN1C(=O)[C@H](CO)NC(=O)[C@H](CO)NC(=O)[C@H](Cc1c[nH]cn1)NC(=O)[C@H](CCCNC(=N)N)NC(=O)[C@H](CC(C)C)NC(=O)[C@H](Cc1ccccc1)NC(=O)[C@H](CC(N)=O)NC(=O)[C@H](C)NC(=O)[C@H](CC(C)C)NC(=O)[C@H](CCCNC(=N)N)NC(=O)[C@H](CCC(N)=O)NC(=O)[C@@H](NC(=O)[C@H](C)NC(=O)[C@@H]1CSSC[C@H](NC(=O)[C@@H](N)CCCCNC(=O)COCCOCCNC(=O)CC[C@H](NC(=O)CCCCCCCCCCCCCCCCCCC(=O)O)C(=O)O)C(=O)N[C@@H](CC(N)=O)C(=O)N[C@@H]([C@@H](C)O)C(=O)N[C@@H](C)C(=O)N[C@@H]([C@@H](C)O)C(=O)N1)[C@@H](C)O)C(=O)N1CCC[C@H]1C(=O)N1CCC[C@H]1C(=O)N[C@@H](CO)C(=O)N[C@H](C(=O)N[C@@H](CC(N)=O)C(=O)N[C@H](C(=O)NCC(=O)N1CCC[C@H]1C(=O)N[C@@H](CC(N)=O)C(=O)N[C@H](C(=O)N[C@@H](Cc1ccc(O)cc1)C(N)=O)[C@@H](C)O)C(C)C)[C@@H](C)O
notes: Acylated analogue of human amylin; also called compound 55
With B3, the IC50 with rat calcitonin receptor [5] worked out at 6.25 nM; in experiment [7], 0.081 nM. Moreover, in the experiment with rat calcitonin receptor [6], the “Ratio rCT/rAmylin binding” value was found to be 77.2.
